Consider four molecules from patent US20080038256A1 (SEOUL NATIONAL UNIVERSITY INDUSTRY FOUNDATION, published 2008).

Experiment [1] concerns the target T1, HGF/SF (hepatocyte growth factor/scatter factor) (UniProt P14210 32-728, limits assumed). As to the kind of experiment: SPR (BIAcore), HGF/SF immobilized. As for the experimental part: (§1) The binding affinity of the anti-HGF/SF Fab humanized antibody to HGF/SF was determined by SPR (Surface plasmon Resonance) on a BIAcore device (BIAcore, Sweden).
(§2) Specifically, HGF/SF was immobilized on a carboxymethyldextran-modified (CM5) sensor chip (Biacore AB) using 10 mM sodium acetate buffer (pH 4.0) at a flow rate of 5 μl/min with an amine coupling kit (Biacore AB) in accordance with the instruction of the kit. Then 4 anti-HGF/SF Fabs and SFN 68 as a control dissolved in phosphate buffered saline (PBS, pH 7.4) containing 0.005% Tween 20 (Sigma) was injected on the chip at 25° C. for 2 min at a flow rate of 30 μl/min, respectively. The anti-HGF/SF Fab humanized antibody was diluted to a varying concentration in the range of 1.25 to 200 nM. The surface was regenerated with 1 M NaCl/50 mM NaOH. The kinetic rate constants (kₒₙ and koff) as well as the equilibrium dissociation constant (KD) were determined by using BIA evaluation software.
On the technique in general: Surface plasmon resonance follows binding to a sensor surface in real time, without labels.

Experiment [2] concerns the target T1, HGF/SF (hepatocyte growth …). The experiment is described as follows: SPR (BIAcore), HGF/SF immobilized on CM5 chip, Fab injected. The protocol:
as §1, §2

For experiment [3] the target is unchanged. As to the kind of experiment: affinity examination of the HSFN 68 clones on HGF/SF, reference SFN68; method not named in this paragraph.
Experiment [4] has the same target. As to the kind of experiment: competition ELISA: HGF/SF coated on the plate, cMET/Fc chimera as the blocked ligand mixed with the varied Fab, bound cMET/Fc detected with HRP anti-human Fc, Abs. at 450 nm, triplicates. The protocol:
A 96-well microplate was coated with 1 μg/ml of HGF/SF and blocked by repeating the procedure of (2-2) of Example 2. Then 25 μl of 2 nM cMET/Fc chimera (R&D systems, USA) mixed with 25 μl of 0 to 200 nM HSFN 68-13 or SFN 68 dissolved in TBSB was added to the HGF/SF coated wells. The plate was incubated for at 37° C. 1 hour and washed with TBS-T. The amount of bound cMET/Fc chimera was assessed with HRP-conjugated rabbit anti-human Fc specific IgG (Pierce) using ultra-TMB substrate solution (Pierce) as a substrate. After 30 min incubation, optical density was measured at 450 nm. All experiments were performed in triplicates, and the average and standard deviation of the optical densities are listed in FIG. 5.
In general terms: ELISA stands for enzyme-linked immunosorbent assay.

T1 sequence (P14210 32-728 limits assumed): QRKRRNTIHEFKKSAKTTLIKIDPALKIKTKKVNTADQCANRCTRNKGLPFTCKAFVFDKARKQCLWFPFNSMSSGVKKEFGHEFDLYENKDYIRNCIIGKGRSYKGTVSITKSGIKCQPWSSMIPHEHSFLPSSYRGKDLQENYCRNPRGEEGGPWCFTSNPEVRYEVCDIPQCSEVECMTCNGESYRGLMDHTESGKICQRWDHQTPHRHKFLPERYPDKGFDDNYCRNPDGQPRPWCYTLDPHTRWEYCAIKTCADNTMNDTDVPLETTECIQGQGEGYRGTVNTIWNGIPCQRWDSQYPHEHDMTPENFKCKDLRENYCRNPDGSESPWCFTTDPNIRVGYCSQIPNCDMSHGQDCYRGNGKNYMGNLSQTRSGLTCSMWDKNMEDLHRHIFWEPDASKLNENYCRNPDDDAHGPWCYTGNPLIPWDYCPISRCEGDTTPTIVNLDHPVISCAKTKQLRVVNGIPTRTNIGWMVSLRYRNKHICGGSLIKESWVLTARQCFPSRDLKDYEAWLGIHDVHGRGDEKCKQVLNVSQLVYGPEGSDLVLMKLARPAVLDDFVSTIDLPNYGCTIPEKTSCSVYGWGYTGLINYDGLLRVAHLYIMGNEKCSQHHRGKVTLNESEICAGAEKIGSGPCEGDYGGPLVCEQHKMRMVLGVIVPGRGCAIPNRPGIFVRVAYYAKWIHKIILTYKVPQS

B1: HSFN 68-13 Fab (Fab, V domains shown)
VH: QQQLVESGGGVVRPGGSLRLSCAASGFTFSTYYMSWVRQAPGKGLEWIGYIGTSSGTTYYANSVKGRFTISSDNAKNSVYLQMNSLRPEDTAVYYCARGLGRINLWGPGTLVTVSS
VL: ELQMTQSPSSLSASVGDRVTITCRASQSISTWLAWYQQKPGKAPKLLIYKASTLESGVPLRFSGGGSGTDFTLTISSLQSEDFATYFCQQSYSLPPTFGQGTKVEVKR
notes: also called anti-HGF/SF Fab humanized antibody
For the molecule B1, the “fold tighter affinity than SFN68 control” value in experiment [1] is around 6 fold. For the same molecule, in experiment [2], the Kd (as a rule, the free concentration of one partner at which half of the binding sites on the other are occupied at equilibrium, for simple one-to-one binding) stood at 2.09 nM and the kon (in general, a measure of how fast the partners come together) was found to be 647000 M⁻¹ s⁻¹. In addition, the “fold higher affinity than SFN68” value in experiment [3] is around 6 fold. Further, in experiment [4], the “IC50 (read off the curve)” value is around 2 nM.

B2: HSFN 68-41 Fab (Fab, V domains shown)
VH: QQQLVESGGGLVQPGGSLRLSCAASGFTFSTYYMSWVRQAPGKGLEWVGYIGTSSGTTYYANSVKGRFTISSDNAKNSVYLQMNSLRPEDTAVYYCARGLGRINLWGQGTLVTVSS
VL: ELQMTQSPSSVSASVGDRVTISCRASQDIRSLLAWYQQKPGKAPKLLIYKASTLESGVPSRFSGSGSGTEFTLTISNLQPDDFATYYCQQYSRYSGGTFGQGTKVEIRR
notes: Fab with human Ckappa and human CH1, expressed from pComb3X in E. coli HB2151
B2: in experiment [2], binding was characterised by a dissociation constant (Kd) of 10.6 nM and the kon was determined as 106000 M⁻¹ s⁻¹.

B3: HSFN 68-16 Fab (Fab, V domains shown)
VH: QQQLVESGGGLVQPGGSLRLSCAASGFTFSTYYMSWIRQAPGKGLEWIGYIGTSSGTTYYANSVKGRFTISSDNAQNSVYLQMNSLRPEDTAVYYCARGLGRINLWGQGTLVTVSS
VL: ELVMTQSPSTLSASVGDRVTITCRASQSISSWLAWYQQKPGKAPKLLIYKASTLESGVSSRFSGGGSGTEFTLTISSLQPDDFATYYCQQYSRYSGGTFGQGTKVEIRR
notes: as for B2
B3: in experiment [2], binding was put at a Kd of 43.1 nM and the kon is 32400 M⁻¹ s⁻¹.

B4: HSFN 68-27 Fab (Fab, V domains shown)
VH: QVQLVESGGGLVKPGGSRRLSCAASGFTFSTYYMSWVRQAPGKGLEWIGYIGTSSGTTYYANSVKGRFTISSDNAQNSVYLQMNSLRPEDTAVYYCARGLGRINLWGQGTLVTVSS
VL: ELQMTQSPSTLSASVGDRVTITCRASQSISSRLAWYQQKPGKAPKLLIYRASTLEGGVPSRFSGSGSGTEFTLTISGLQPDDFATYYCQQYSTFSPTFGQGTQVDIKR
notes: as for B2
For B4, in experiment [2], the affinity, expressed as Kd, was 5.27 nM and the kon amounted to 392000 M⁻¹ s⁻¹.
